{"source": "patent US9187525B2", "about": "“Methods of treating ophthalmic diseases using NPR-B agonists” (Shire Orphan Therapies GmbH, dated 2015)", "binders": {"B1": {"name": "JAL-1375 (peptide)", "peptide": "[AR‑201‑69]F[dL]L[Hyp][NMeL]DRI-NH2", "modifications": "reading uncertain; also: printed as (AR-201-69)-Phe-leu-Leu-Hyp-Nml-Asp-Arg-Ile-NH2"}, "B2": {"name": "JAL-1377 (peptide)", "peptide": "[AR‑201‑72]F[dR]L[Hyp][NMeL]DRI-NH2", "modifications": "reading uncertain; also: printed as (AR-201-72)-Phe-arg-Leu-Hyp-Nml-Asp-Arg-Ile-NH2"}, "B3": {"name": "JAL-1373 (peptide)", "peptide": "[AR‑201‑58]F[dL]L[Hyp][NMeL]DRI-NH2", "modifications": "reading uncertain; also: printed as (AR-201-58)-Phe-leu-Leu-Hyp-Nml-Asp-Arg-Ile-NH2"}, "B4": {"name": "JAL-1379 (peptide)", "peptide": "[AR‑201‑73]F[dR]L[Hyp][NMeL]DRI-NH2", "modifications": "reading uncertain; also: printed as (AR-201-73)-Phe-arg-Leu-Hyp-Nml-Asp-Arg-Ile-NH2"}, "B5": {"name": "JAL-1376 (peptide)", "peptide": "[AR‑201‑72]F[dL]L[Hyp][NMeL]DRI-NH2", "modifications": "reading uncertain; also: printed as (AR-201-72)-Phe-leu-Leu-Hyp-Nml-Asp-Arg-Ile-NH2"}, "B6": {"name": "JAL-1381 (peptide)", "peptide": "[AR‑201‑68]F[dR]L[Hyp][NMeL]DRI-NH2", "modifications": "reading uncertain; also: printed as (AR-201-68)-Phe-arg-Leu-Hyp-Nml-Asp-Arg-Ile-NH2"}, "B7": {"name": "JAL-0648 (peptide)", "peptide": "XXFGLKLDRI", "HELM": "PEPTIDE1{[CCCCCC(=O)[*:2]].[O=C(c1ccc(CN[*:1])cc1)[*:2]].F.G.L.K.L.D.R.I.[am]}$$$$V2.0", "SMILES": "CCCCCC(=O)NCc1ccc(C(=O)N[C@@H](Cc2ccccc2)C(=O)NCC(=O)N[C@@H](CC(C)C)C(=O)N[C@@H](CCCCN)C(=O)N[C@@H](CC(C)C)C(=O)N[C@@H](CC(=O)O)C(=O)N[C@@H](CCCNC(=N)N)C(=O)N[C@H](C(N)=O)[C@@H](C)CC)cc1"}, "B8": {"name": "JAL-1380 (peptide)", "peptide": "[AR‑201‑68]F[dL]L[Hyp][NMeL]DRI-NH2", "modifications": "reading uncertain; also: printed as (AR-201-68)-Phe-leu-Leu-Hyp-Nml-Asp-Arg-Ile-NH2"}, "B9": {"name": "JAL-1378 (peptide)", "peptide": "[AR‑201‑73]F[dL]L[Hyp][NMeL]DRI-NH2", "modifications": "reading uncertain; also: printed as (AR-201-73)-Phe-leu-Leu-Hyp-Nml-Asp-Arg-Ile-NH2"}, "B10": {"name": "JAL-0649 (peptide)", "peptide": "XXFGLKLDRI", "HELM": "PEPTIDE1{[CCCCCC(=O)[*:2]].[O=C(Cc1cccc(N[*:1])c1)[*:2]].F.G.L.K.L.D.R.I.[am]}$$$$V2.0", "SMILES": "CCCCCC(=O)Nc1cccc(CC(=O)N[C@@H](Cc2ccccc2)C(=O)NCC(=O)N[C@@H](CC(C)C)C(=O)N[C@@H](CCCCN)C(=O)N[C@@H](CC(C)C)C(=O)N[C@@H](CC(=O)O)C(=O)N[C@@H](CCCNC(=N)N)C(=O)N[C@H](C(N)=O)[C@@H](C)CC)c1"}, "B11": {"name": "JAL-1374 (peptide)", "peptide": "[AR‑201‑62]F[dL]L[Hyp][NMeL]DRI-NH2", "modifications": "reading uncertain; also: printed as (AR-201-62)-Phe-leu-Leu-Hyp-Nml-Asp-Arg-Ile-NH2"}}, "note": "Numbered stars: 1 amine (or outer) side, 2 acyl side, 3 side chain; on linkers, the order of the positions; unused ones are H or OH. Square brackets hold non-standard residues; d marks the D form. Ends that are not written are not given here. * marks the point of attachment. Tap(Ae) = (2S,4R)-4-(2-aminoethylamino)pyrrolidine-2-carboxylic acid, O=C([C@@H]1C[C@@H](NCCN[*:3])CN1[*:1])[*:2]; dap(6263)2 = (R)-2-amino-3-(bis(2-aminoethyl)amino)propanoic acid, NCCN(CCN[*:3])C[C@@H](N[*:1])C(=O)[*:2]; Tap(Ap) = 4-(3-amino-propylamino)-pyrrolidine-2-carboxylic acid; Pro(trans-4-NH2) = O=C([C@@H]1C[C@@H](N[*:3])CN1[*:1])[*:2]; Sni = (S)-nipecotic acid, O=C([C@H]1CCCN([*:1])C1)[*:2]; Oic = O=C(O)[C@@H]1C[C@@H]2CCCC[C@@H]2N1; dDap(Me2) = CN(C)C[C@@H](N)C(=O)O; Hyp = O=C(O)[C@@H]1C[C@@H](O)CN1; Dap(Me2) = CN(C)C[C@H](N)C(=O)O; NMeL = CN[C@@H](CC(C)C)C(=O)O; AR‑201‑58 = not defined here; AR‑201‑62 = not defined here; AR‑201‑68 = not defined here; AR‑201‑69 = not defined here; AR‑201‑72 = not defined here; AR‑201‑73 = not defined here; Pip = O=C(O)[C@@H]1CCCCN1; Ac6c = NC1(C(=O)O)CCCCC1; Nle = CCCC[C@H](N)C(=O)O; Octanoyl = CCCCCCCC(=O)*; Sbt = 5-butyl-thiazole; Occ = octanoic acid", "data": [{"biological_target": "T1, natriuretic peptide receptor-B (human)", "T1 chain": "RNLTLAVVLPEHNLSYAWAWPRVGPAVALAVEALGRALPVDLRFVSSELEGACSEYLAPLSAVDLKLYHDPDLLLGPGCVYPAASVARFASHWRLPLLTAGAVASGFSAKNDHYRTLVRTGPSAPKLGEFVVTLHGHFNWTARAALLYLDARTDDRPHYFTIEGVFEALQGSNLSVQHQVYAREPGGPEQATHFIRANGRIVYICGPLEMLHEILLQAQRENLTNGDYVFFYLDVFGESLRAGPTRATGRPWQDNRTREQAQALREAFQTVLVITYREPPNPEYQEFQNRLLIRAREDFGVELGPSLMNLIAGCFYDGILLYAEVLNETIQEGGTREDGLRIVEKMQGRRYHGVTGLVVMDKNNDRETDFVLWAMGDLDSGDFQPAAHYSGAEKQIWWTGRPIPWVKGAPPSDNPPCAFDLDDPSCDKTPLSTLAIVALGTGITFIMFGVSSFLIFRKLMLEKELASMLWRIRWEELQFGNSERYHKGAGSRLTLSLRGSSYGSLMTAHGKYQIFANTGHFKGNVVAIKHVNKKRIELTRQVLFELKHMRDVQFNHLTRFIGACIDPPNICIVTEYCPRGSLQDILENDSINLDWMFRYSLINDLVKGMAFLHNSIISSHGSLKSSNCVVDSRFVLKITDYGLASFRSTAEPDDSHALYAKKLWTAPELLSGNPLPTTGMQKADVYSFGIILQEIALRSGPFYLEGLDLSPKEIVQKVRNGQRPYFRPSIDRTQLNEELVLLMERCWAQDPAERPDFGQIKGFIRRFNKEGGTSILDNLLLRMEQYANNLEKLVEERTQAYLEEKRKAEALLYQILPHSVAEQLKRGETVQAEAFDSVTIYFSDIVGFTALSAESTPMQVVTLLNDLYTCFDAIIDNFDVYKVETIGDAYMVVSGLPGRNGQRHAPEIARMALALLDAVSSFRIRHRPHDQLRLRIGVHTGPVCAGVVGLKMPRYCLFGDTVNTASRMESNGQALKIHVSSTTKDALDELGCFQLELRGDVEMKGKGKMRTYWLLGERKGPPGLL", "experiment": "cell-based or functional assay", "units": {"EC50 group, cGMP in GTM-3 cells": "µM"}, "values": [{"binder": "B1", "EC50 group, cGMP in GTM-3 cells": "≤ 5"}, {"binder": "B2", "EC50 group, cGMP in GTM-3 cells": "≤ 15"}, {"binder": "Octanoyl-[dA]F[dL]L[Hyp][NMeL]DR[Ac6c]-NH2", "note": "[JAL-1358]", "EC50 group, cGMP in GTM-3 cells": "≤ 1"}, {"binder": "Octanoyl-[Sni]F[dL]L[Tap(Ae)][NMeL]DRI-NH2", "note": "[JAL-1371]", "EC50 group, cGMP in GTM-3 cells": "≤ 1"}, {"binder": "B3", "EC50 group, cGMP in GTM-3 cells": "≤ 5"}, {"binder": "Octanoyl-[dA]F[dL]L[Hyp][Pip]DRI-NH2", "note": "[JAL-1366]", "EC50 group, cGMP in GTM-3 cells": "≤ 5"}, {"binder": "B4", "EC50 group, cGMP in GTM-3 cells": "≤ 5"}, {"binder": "Octanoyl-[Sni]F[dL]L[Tap(Ap)][NMeL]DRI-NH2", "note": "[JAL-1372]", "EC50 group, cGMP in GTM-3 cells": "≤ 1"}, {"binder": "B5", "EC50 group, cGMP in GTM-3 cells": "≤ 15"}, {"binder": "Octanoyl-[dA]F[dL][Dap(Me2)][Hyp][NMeL]DRI-NH2", "note": "[JAL-1368]", "EC50 group, cGMP in GTM-3 cells": "≤ 5"}, {"binder": "Octanoyl-[dA]F[dR]L[Hyp][NMeL]IRI-NH2", "note": "[JAL-1362]", "EC50 group, cGMP in GTM-3 cells": "≤ 15"}, {"binder": "[Occ][Sni]F[dap(6263)2]L[Pro(trans-4-NH2)][NMeL]DRI-NH2", "note": "[JAL-1370]", "EC50 group, cGMP in GTM-3 cells": "≤ 5"}, {"binder": "Sbt-[Sni]F[dL]L[Hyp][NMeL]DRI-NH2", "note": "[JAL-1382]", "EC50 group, cGMP in GTM-3 cells": "≤ 1"}, {"binder": "Octanoyl-[dA]F[dR]L[Hyp][Oic]DRI-NH2", "note": "[JAL-1364]", "EC50 group, cGMP in GTM-3 cells": "≤ 5"}, {"binder": "Octanoyl-[dA]F[dL]L[Hyp][NMeL]D[Nle]I-NH2", "note": "[JAL-1360]", "EC50 group, cGMP in GTM-3 cells": "≤ 15"}, {"binder": "B6", "EC50 group, cGMP in GTM-3 cells": "≤ 5"}, {"binder": "B7", "EC50 group, cGMP in GTM-3 cells": "≤ 15"}, {"binder": "B8", "EC50 group, cGMP in GTM-3 cells": "≤ 1"}, {"binder": "Octanoyl-[dA]F[dL]L[Hyp][NMeL]IRI-NH2", "note": "[JAL-1363]", "EC50 group, cGMP in GTM-3 cells": "≤ 5"}, {"binder": "Octanoyl-[dA]F[dL]L[Hyp][Dap(Me2)]DRI-NH2", "note": "[JAL-1367]", "EC50 group, cGMP in GTM-3 cells": "≤ 1"}, {"binder": "B9", "EC50 group, cGMP in GTM-3 cells": "≤ 5"}, {"binder": "B10", "EC50 group, cGMP in GTM-3 cells": "≤ 15"}, {"binder": "Octanoyl-[dA]F[dR]L[Hyp][Pip]DRI-NH2", "note": "[JAL-1365]", "EC50 group, cGMP in GTM-3 cells": "≤ 15"}, {"binder": "Octanoyl-[Sni]F[dDap(Me2)]L[Pro(trans-4-NH2)][NMeL]DRI-NH2", "note": "[JAL-1369]", "EC50 group, cGMP in GTM-3 cells": "≤ 1"}, {"binder": "B11", "EC50 group, cGMP in GTM-3 cells": "≤ 5"}, {"binder": "Octanoyl-[dA]F[dR]L[Hyp][NMeL]DR[Ac6c]-NH2", "note": "[JAL-1359]", "EC50 group, cGMP in GTM-3 cells": "≤ 5"}, {"binder": "Octanoyl-[dA]F[dR]L[Hyp][NMeL]D[Nle]I-NH2", "note": "[JAL-1361]", "EC50 group, cGMP in GTM-3 cells": "≤ 15"}]}]}
